Data set [1] has as its system quenched fluorogenic peptide of the human CD28 stalk region (WT).
Data set [2] concerns c-Myc conjugated and biotinylated human CD28 stalk region dimeric peptide (wild-type).
The test system of data set [3] is quenched fluorogenic peptide of the human CD28 stalk region with L145K.

Data on one substance can be found in patent US20260209355.

Sequence of c-Myc conjugated and biotinylated human CD28 stalk region dimeric peptide (wild-type) (chain, as listed by the source): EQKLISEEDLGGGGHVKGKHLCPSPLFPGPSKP

Regarding Recombinant human MMP-13, in data set [1], the “fluorescence from cleavage of quenched fluorogenic peptide” value was “MMP-13 also cleaves the stalk domain, but at a much lower rate and efficiency than MMP-2”; the “fluorescence from cleavage of quenched fluorogenic peptide (2.5 µM peptide, 30 ng enzyme)” value is listed as “both enzymes efficiently cleaved the WT peptide”; the “fluorescence from cleavage of quenched fluorogenic peptide, titration of protease” value is given as “the cleavage of the peptide was dose dependent”. For the same substance, the “intact peptide by anti-Myc ELISA (25 and 50 ng enzyme, 5 hours)” value in data set [2] was “the WT peptide was cleaved in a dose dependent manner”. For the same substance, in data set [3], the “fluorescence from cleavage of quenched fluorogenic peptide (2.5 µM peptide, 30 ng enzyme)” value was “both were completely incapable of cleaving the mutant peptide”.
